Measured values from US20090010961A1.

Assays:
Assay in all cases: cell-based or functional assay
[1] = molecular target: E protein of wild-type DEN-1 16007 virus (dengue-1 virus, strain 16007) (UniProt P27909)
[2] = molecular target: E protein of wild-type DEN-4 1036 virus (dengue-4 virus, strain 1036) (UniProt P09866)
[3] = molecular target: E protein of wild-type DEN-3 16562 virus (dengue-3 virus, strain 16562) (UniProt P27915)

Substance: monoclonal antibody 3H5 (specific for DEN-2 E protein)
- Reciprocal serum dilution-plaque reduction neutralization titers (50% endpoint) (reciprocal dilution) [1]: 20
- Reciprocal serum dilution-plaque reduction neutralization titers (50% endpoint) (reciprocal dilution) [2]: < 20
- Reciprocal serum dilution-plaque reduction neutralization titers (50% endpoint) (reciprocal dilution) [3]: 40
